# In IntAct's records for PubMed 20477991:
# B1: Phospholipid-transporting ATPase NEO1 (Saccharomyces cerevisiae), P40527 (parent)
# chain: MPNPPSFKSHKQNLFNSNNNQHANSVDSFDLHLDDSFDAALDSLQINNNPEPLSKHNTVGDRESFEMRTVDDLDNFSNHSSDSHRKSSNTDTHPLMYDNRLSQDDNFKFTNIASSPPSSSNNIFSKALSYLKVSNTKNWSKFGSPIELSDQHIEREIHPDTTPVYDRNRYVSNELSNAKYNAVTFVPTLLYEQFKFFYNLYFLVVALSQAVPALRIGYLSSYIVPLAFVLTVTMAKEAIDDIQRRRRDRESNNELYHVITRNRSIPSKDLKVGDLIKVHKGDRIPADLVLLQSSEPSGESFIKTDQLDGETDWKLRVACPLTQNLSENDLINRISITASAPEKSIHKFLGKVTYKDSTSNPLSVDNTLWANTVLASSGFCIACVVYTGRDTRQAMNTTTAKVKTGLLELEINSISKILCACVFALSILLVAFAGFHNDDWYIDILRYLILFSTIIPVSLRVNLDLAKSVYAHQIEHDKTIPETIVRTSTIPEDLGRIEYLLSDKTGTLTQNDMQLKKIHLGTVSYTSETLDIVSDYVQSLVSSKNDSLNNSKVALSTTRKDMSFRVRDMILTLAICHNVTPTFEDDELTYQAASPDEIAIVKFTESVGLSLFKRDRHSISLLHEHSGKTLNYEILQVFPFNSDSKRMGIIVRDEQLDEYWFMQKGADTVMSKIVESNDWLEEETGNMAREGLRTLVIGRKKLNKKIYEQFQKEYNDASLSMLNRDQQMSQVITKYLEHDLELLGLTGVEDKLQKDVKSSIELLRNAGIKIWMLTGDKVETARCVSISAKLISRGQYVHTITKVTRPEGAFNQLEYLKINRNACLLIDGESLGMFLKHYEQEFFDVVVHLPTVIACRCTPQQKADVALVIRKMTGKRVCCIGDGGNDVSMIQCADVGVGIVGKEGKQASLAADFSITQFCHLTELLLWHGRNSYKRSAKLAQFVMHRGLIIAICQAVYSICSLFEPIALYQGWLMVGYATCYTMAPVFSLTLDHDIEESLTKIYPELYKELTEGKSLSYKTFFVWVLLSLFQGSVIQLFSQAFTSLLDTDFTRMVAISFTALVVNELIMVALEIYTWNKTMLVTEIATLLFYIVSVPFLGDYFDLGYMTTVNYYAGLLVILLISIFPVWTAKAIYRRLHPPSYAKVQEFATP
# Variants of: B1
# Conditions: with dop1_yeast DOP1, Q03921
# Chain of dop1_yeast DOP1, Q03921 (Q03921 whole entry): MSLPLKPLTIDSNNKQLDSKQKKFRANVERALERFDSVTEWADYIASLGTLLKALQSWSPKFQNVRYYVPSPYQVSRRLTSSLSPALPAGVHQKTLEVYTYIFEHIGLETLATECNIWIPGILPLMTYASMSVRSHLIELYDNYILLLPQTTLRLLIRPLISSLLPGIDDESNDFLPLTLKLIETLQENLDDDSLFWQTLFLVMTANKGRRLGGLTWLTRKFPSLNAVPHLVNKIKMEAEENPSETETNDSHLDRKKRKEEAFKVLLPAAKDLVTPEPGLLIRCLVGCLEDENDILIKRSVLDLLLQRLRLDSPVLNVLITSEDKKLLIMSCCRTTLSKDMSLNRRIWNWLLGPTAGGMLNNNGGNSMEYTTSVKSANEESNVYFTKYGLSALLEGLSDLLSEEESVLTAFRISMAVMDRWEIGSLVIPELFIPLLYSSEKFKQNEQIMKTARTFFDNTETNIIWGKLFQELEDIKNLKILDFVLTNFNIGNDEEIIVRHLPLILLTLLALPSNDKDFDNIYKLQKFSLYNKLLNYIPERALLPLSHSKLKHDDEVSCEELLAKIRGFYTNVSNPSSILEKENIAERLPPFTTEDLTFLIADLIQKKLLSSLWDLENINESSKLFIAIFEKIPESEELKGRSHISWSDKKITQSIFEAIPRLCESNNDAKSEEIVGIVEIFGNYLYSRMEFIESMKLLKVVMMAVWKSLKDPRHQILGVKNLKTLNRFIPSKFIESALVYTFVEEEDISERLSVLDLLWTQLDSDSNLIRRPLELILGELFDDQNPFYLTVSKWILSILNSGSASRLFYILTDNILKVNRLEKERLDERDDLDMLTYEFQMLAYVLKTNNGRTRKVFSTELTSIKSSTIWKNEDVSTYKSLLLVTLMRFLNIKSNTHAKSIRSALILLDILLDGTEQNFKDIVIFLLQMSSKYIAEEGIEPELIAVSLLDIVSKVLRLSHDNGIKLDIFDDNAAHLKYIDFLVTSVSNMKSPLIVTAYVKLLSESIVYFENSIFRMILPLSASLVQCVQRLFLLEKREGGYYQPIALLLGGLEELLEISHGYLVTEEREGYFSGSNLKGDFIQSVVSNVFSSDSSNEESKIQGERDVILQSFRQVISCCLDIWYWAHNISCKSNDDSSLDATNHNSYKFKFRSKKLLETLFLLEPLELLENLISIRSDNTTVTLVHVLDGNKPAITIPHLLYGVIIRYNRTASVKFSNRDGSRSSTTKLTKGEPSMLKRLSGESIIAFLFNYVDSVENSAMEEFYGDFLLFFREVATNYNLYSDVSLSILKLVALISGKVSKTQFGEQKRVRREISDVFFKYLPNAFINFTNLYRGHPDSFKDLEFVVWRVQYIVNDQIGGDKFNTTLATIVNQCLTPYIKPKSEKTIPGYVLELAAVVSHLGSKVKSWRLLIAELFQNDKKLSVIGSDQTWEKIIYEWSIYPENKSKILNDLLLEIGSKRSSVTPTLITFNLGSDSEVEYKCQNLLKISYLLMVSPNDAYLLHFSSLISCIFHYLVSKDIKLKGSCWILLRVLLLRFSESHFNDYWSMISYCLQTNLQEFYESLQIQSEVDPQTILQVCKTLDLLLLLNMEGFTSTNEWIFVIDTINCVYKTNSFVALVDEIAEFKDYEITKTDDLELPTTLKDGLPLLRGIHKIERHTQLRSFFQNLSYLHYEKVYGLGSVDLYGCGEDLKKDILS
row,Variant,effect of a mutation on the interaction
1,F301S;D305G;V373A;S539P;L540P;N631S;Q655R;V748A,decreasing interaction strength
2,I284T;I449M;E605G;L680P;Y714H,with no effect
